Experimental data: patent publication US20230257435A1, “Wound Healing Composition and Uses Thereof” (AGENCY FOR SCIENCE, TECHNOLOGY AND RESEARCH, priority 2020, published 2023)

Tests used:
mouse skin punch wounds [1] = assay: Punch-biopsy wound healing model, splinted; assay type: in vivo
Experimental: (§1) Six to eight to week old female experimental ICR (nomenclature: IcrTac:ICR) mice purchased from InVivos were used for punch-biopsy wound healing in vivo assays. In the ex-vivo mouse skin explant assay, random ratios of male and female new born ICR mouse pups were used. Wherever possible, the experiments were performed taking into consideration an ethical and reductionist approach of animal usage. Animal studies were not performed in a blinded fashion. The animals were randomly assigned to different experimental groups. The number of animals used for each experiment is indicated in the legend as n=x mice per group. All animal experiments performed were done in accordance with experimental protocols reviewed by the Biological Resource Center (BRC), Agency for Science Technology and Research (A*STAR) under strict compliance to the Institutional Animal Care and Use Committee (IACUC) guidelines for ethical use of animal models in biological research.
(§2) The mice were housed under standard conditions of 21° C. and a 12 h light-dark cycle with free access to food. Subsequently, the mice were intraperitoneally (i.p.) anesthezised using Ketamine 100 mg/kg and Xylazin 10 mg/kg diluted in […] of saline solution. The fur was shaved from the base of the neck towards the back on the entire shoulder region. The skin was wiped with an alcohol swab and 10% povidone-iodine (Betadine) antiseptic solution. Circular symmetrical 4 mm wounds were inflicted on either side of the midline in the shoulder region using a sterile 4 mm punch biopsy needle (Integra Miltex, Integra York, P.A., Inc.). The wound skin was carefully removed using a scalpel and a pair of scissors to generate a full-thickness wound that were left open for topical administrations during the analysed time periods. For splinted wound healing models, a 10 mm transparent donut shaped nylon sheet (Grace Bio-Laboratories, Bend, Oreg.) was placed around the 4 mm wound. The splint was placed with the wound at the center, glued to the skin by adhesive (Krazy Glue®; Elmer's Inc.), and covered by Tegaderm dressing. The wounds were treated with different formulations based on either petroleum jelly (Vaseline), a thermoresponsive hydrogel (Pluronic F127-Sigma) or a commercially available skin ointment (Aquaphore-Beiersdorf, Inc.). For Vaseline based ointment cream preparation, 10 mg per cm^2 vaseline ointment was mixed with filtered PBS solutions containing the indicated amounts of Agrin (100 μg, 200 μg or 500 μg) and 100 μg BSA (w/w) were used and applied topically every two days. For siRNA mediated knockdown experiments, 75 nM of indicated siRNAs were incubated with lipofectamine in PBS. Subsequently, a 1:1 mixture of PBS (containing the siRNAs): Aquaphore was applied topically on the wound region every two days. A topical formulation comprising of 20% (w/w) Pluronic F127 (Sigma) was used to dissolve in sterile and 0.22μ filtered solution containing a final concentration of 200 μg/ml sAgrin or BSA. This mixture was dissolved overnight at 4° C. to ensure that liquid phase is achieved. The mixture forms a homogenous gel at temperatures above ˜20° C. and was dispersed topically to cover the wound. Wound closure was assessed using a Vernier caliper every alternate day. For both models, the animals were caged individually throughout the observed time-points of healing at the institutional animal facility. All wound healing animal experiments performed were done in accordance with experimental protocols reviewed by the Biological Resource Center (BRC), Agency for Science Technology and Research (A*STAR) under strict compliance to the Institutional Animal Care and Use Committee (IACUC) guidelines for ethical use of animal models in biological research.
(§3) Human skin equivalents and mice skin tissues were harvested, embedded, and subjected to routine histology using Hematoxylin and Eosin. For immunostaining, the tissues were fixed for 24 h in 10% neutral buffered formalin solution. […]

mouse skin punch wounds [2] = assay: Punch-biopsy wound healing model, non-splinted; assay type: in vivo
Experimental: as §1, §2, §3

pMLC = assay: Force transmission via ligand conjugated magnetic beads; assay type: cell-based, human
[3] = system: keratinocytes and dermal fibroblasts; assay: In vitro scratch wound-healing assay; assay type: cell-based, human and mouse
Experimental: A confluent monolayer of control and Agrin depleted cells in a 6-well plate was subjected to a unidirectional scratch using a 20 μl pipette tip. This was followed by washing with 1×PBS at room temperature and incubation in complete culture media at 37° C. and 5% CO2 with or without sAgrin used as indicated. Phase contrast images of the wound area were taken periodically at the indicated time-points. For some wound-healing migration assays, keratinocytes were cultured on either soft or stiff substrates within a stencil barrier (Nalge Nunc., Inc) for 18 h. Upon removal of the barrier, the cells were allowed to migrate and imaged using an Axiovert 200 inverted microscope at indicated time-points.

keratinocytes = assay: BrdU incorporation after wound scratch (leader/follower cells); assay type: cell-based; conditions: Agrin knockdown; 10 μg/ml sAgrin 18 h; 4 h post-scratch
Experimental: FIG. 6 Agrin impacts keratinocyte proliferation following wound injury. (a) Control, Agrin depleted indicated keratinocytes and those rescued with 10 μg/ml sAgrin for 18 h were labelled with 20 μM BrdU for 12 hours, before proceeding with wound-scratch assays. The cells were fixed at 4 hours post-scratching and stained with an Anti-BrdU and K17 antibodies. Nuclei were counterstained with DAPI. Representative confocal images at the wound edge (leader) and at-least 200 μm away from the wound margin (followers) are shown. The relative percentage of proliferating cells are shown for each condition graphically (n=5-6 images analyzed for each conditions from three replicates, Students ‘t’ test, **p=0.006, *p-0.003, p=0.005, ***p=0.0001, respectively). Scale bar: 10 μm. (b-c) Schematic showing the states of proliferation at the migrating wound margins. Immunohistological sections stained for Ki67 in control and Agrin depleted wound edges and beds at day 7 post-wounding. Filled arrows denote the base of epidermis (Ep), while arrows represent the wound margin. Asterisk (*) denotes the loss of Ki67 proliferation at the wound margins. Scale bar: 100 μm. The percentage of proliferating cells was quantified using Image J (n=4 sections analyzed from two individual mice, Students ‘t’ tests, **p=0.001).

B1: sAgrin: C-terminus recombinant Agrin fragment containing 8 amino acid 'Z8' insert and LG3 domain (SEQ ID NO: 7), His-tagged, expressed in E. coli (protein)
chain: DTLAFDGRTFVEYLNAVTESELANEIPVEKALQSNHFELSLRTEATQGLVLWSGKATERADYVALAIVDGHLQLSYNLGSQPVVLRSTVPVNTNRWLRVVAHREQREGSLQVGNEAPVTGSSPLGATQLDTDGALWLGGLPELPVGPALPKAYGTGFVGCLRDVVVGRHPLHLLEDAVTKPELRPCPTP
modifications: His tag
- wound healing, Pluronic F127 (mouse skin punch wounds [1]; 200 ug sAgrin vs collagen or BSA, 12 days): significantly accelerated wound healing when compared to similar concentrations of collagen or BSA
- pMLC expression in wound edges and beds under MMP12 depletion (mouse skin punch wounds [1]; MMP12 siRNA, 200 μg sAgrin): significantly attenuated in MMP12 depleted skin sections
- sAgrin accelerated healing rates and re-epithelialization under MMP12 depletion (mouse skin punch wounds [1]; MMP12 siRNA, 200 μg sAgrin, within 10 days): dramatically reduced upon MMP12 depletion
- CD-31 expressing blood vessels under MMP12 suppression (mouse skin punch wounds [1]; day 10): failed to induce robust CD-31 expressing blood vessels
- sAgrin induced mature and mixed collagen fiber deposition under MMP12 depletion (mouse skin punch wounds [1]; day 10): significantly diminished upon MMP12 depletion
- deposition of collagen fibers in wound beds (mouse skin punch wounds [1]; day 10, vs BSA and Collagen): higher deposition of mature and mixed collagen fibers
- histology of wound area (mouse skin punch wounds [1]; day 10 post-wounding, vs BSA or Collagen): predominantly represented healed skin with the emergence of regenerated hair follicles
- number of blood vessels and their diameters (mouse skin punch wounds [1]; day 12 post-injury, vs BSA or Collagen): increased number of blood vessels and their diameters
- migratory epithelial tongue from wound edges (mouse skin punch wounds [2]; day 2): significant extension of the migratory epithelial tongue
- K17 outgrowth, MMP12 expression and pMLC activation (mouse skin punch wounds [2]; day 2, wound edges and beds): robust K17 expressing keratinocyte outgrowth, MMP12 expression and pMLC activation
- angiogenesis (blood vessel number and diameter) (mouse skin punch wounds [2]; day 6): steady enhancement in angiogenesis with an increased number of blood vessels and their respective diameters
- Ki67+ve proliferating cells (mouse skin punch wounds [2]; day 7 post-injury): enhancement of Ki67+ve proliferating cells
- rates of wound healing, Pluronic F-127 hydrogel (mouse skin punch wounds [2]; sAgrin 200 μg vs control hydrogel): significantly boosted the rates of wound healing in vivo
- healing rates of punch wounds, Vaseline ointment (mouse skin punch wounds [2]; sAgrin 100, 200 or 500 μg in Vaseline vs BSA): significantly accelerated the healing rates of mice punch wounds in a dose-dependent fashion
- pMLC recruitment in control cells upon force (bead pull-down Western) (pMLC; siControl cells): greater pMLC recruitment in control cells compared to FN, but similar to that induced by Syndecan-4
- pMLC with temporal increase of force application (pMLC; up to 60 min): enhanced pMLC mechanoperception
- scratch wound-responsive migration velocities (rescue of Agrin knockdown) ([3]; Agrin knockdown fibroblasts and keratinocytes, 10 μg/ml sAgrin 18 h): in part, rescued
- migration of MMP 1 and 10 knockdown keratinocytes ([3]; HaCaT, 10 μg/ml sAgrin 18 h): not restored by sAgrin treatment
- migratory rates with increasing concentrations of sAgrin ([3]; HaCaT/mouse keratinocytes): accelerated migratory rates
- migration of MMP12 depleted keratinocytes ([3]; human and mouse keratinocytes, 10 μg/ml sAgrin 18 h): failed to stimulate migration
- K17 expressing leader keratinocyte migration in vitro ([3]; sAgrin 10 μg/ml, 4 h): enhanced the K17 expressing leader keratinocyte migration
- proliferation of follower cells away from the wound margin (keratinocytes): rescued
